Laboratory results reported in PMC4330389, “Domain organization within the nuclear export factor Mex67:Mtr2 generates an extended mRNA binding surface”.

T1: Mex67 (full length):Mtr2;Mtr2 (Saccharomyces cerevisiae;Saccharomyces …, UniProt Q99257;P34232 1-599;1-184, |)
T1 sequence 1: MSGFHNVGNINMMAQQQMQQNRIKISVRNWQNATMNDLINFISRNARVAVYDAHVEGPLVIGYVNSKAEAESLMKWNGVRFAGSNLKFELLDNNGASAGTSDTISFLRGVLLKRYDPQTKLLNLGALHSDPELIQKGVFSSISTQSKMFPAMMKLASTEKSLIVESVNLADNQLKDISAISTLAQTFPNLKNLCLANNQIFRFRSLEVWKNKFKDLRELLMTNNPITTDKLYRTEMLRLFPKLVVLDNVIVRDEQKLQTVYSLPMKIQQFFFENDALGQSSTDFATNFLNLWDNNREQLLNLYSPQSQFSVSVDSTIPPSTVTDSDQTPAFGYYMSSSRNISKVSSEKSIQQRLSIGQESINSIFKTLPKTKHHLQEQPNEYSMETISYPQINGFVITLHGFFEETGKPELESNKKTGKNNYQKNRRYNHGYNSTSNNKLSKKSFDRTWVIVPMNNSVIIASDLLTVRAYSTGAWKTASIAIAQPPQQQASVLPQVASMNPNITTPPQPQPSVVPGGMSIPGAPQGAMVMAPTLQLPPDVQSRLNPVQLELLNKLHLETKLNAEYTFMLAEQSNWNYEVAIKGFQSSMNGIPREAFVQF
T1 sequence 2: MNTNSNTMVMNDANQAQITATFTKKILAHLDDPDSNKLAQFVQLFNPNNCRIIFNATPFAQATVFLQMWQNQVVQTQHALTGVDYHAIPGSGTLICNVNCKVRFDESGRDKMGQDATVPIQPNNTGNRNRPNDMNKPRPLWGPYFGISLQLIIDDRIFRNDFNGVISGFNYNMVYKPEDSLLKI

T2: Mex67NTF2L;Mtr2 (Saccharomyces cerevisiae;Saccharomyces …, UniProt Q99257;P34232 264-487;1-184, |)
T2 sequence 1: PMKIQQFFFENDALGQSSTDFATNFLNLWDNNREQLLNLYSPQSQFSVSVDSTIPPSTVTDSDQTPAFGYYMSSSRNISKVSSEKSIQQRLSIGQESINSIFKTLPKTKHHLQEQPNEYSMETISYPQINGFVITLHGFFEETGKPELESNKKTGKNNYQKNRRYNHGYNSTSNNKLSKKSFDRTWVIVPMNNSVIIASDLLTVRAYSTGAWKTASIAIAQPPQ
T2 sequence 2: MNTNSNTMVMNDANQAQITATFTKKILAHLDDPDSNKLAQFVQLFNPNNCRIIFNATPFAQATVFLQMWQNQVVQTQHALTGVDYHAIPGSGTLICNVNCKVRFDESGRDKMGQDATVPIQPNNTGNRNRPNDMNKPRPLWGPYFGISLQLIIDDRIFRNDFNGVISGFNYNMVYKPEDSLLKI

T3: Mex67ΔUBA L263D+M265D;Mtr2 (Saccharomyces cerevisiae;Saccharomyces …, UniProt Q99257;P34232 1-487;1-184, L263D;M265D|)
T3 sequence 1: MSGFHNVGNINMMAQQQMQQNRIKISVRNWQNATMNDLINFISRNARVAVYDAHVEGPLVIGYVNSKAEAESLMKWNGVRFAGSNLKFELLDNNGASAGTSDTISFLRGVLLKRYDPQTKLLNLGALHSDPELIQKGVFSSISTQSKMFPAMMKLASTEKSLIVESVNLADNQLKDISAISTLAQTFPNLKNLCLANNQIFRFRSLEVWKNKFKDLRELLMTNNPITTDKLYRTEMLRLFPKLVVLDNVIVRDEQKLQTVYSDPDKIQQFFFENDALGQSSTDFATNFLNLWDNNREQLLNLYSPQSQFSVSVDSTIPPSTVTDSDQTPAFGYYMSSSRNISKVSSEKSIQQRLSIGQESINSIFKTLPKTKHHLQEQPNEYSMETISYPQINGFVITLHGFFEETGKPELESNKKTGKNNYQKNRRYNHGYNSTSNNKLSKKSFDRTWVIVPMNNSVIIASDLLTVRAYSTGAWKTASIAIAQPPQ
T3 sequence 2: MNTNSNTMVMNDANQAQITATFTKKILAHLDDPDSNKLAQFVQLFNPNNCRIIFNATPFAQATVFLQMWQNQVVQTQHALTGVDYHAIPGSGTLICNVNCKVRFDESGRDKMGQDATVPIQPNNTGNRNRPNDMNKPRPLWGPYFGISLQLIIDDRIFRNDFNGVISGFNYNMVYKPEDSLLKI

T4: Mex67RRM-LRR (Saccharomyces cerevisiae, UniProt Q99257 2-262)
T4 sequence: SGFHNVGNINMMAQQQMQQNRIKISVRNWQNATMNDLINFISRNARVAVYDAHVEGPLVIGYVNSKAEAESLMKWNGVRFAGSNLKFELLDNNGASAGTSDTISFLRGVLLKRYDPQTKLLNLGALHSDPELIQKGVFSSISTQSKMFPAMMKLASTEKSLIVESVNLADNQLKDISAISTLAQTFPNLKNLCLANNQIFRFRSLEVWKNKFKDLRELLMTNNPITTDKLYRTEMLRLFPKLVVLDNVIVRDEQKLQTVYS

T5: Mex67ΔUBA;Mtr2 (Saccharomyces cerevisiae;Saccharomyces …, UniProt Q99257;P34232 1-487;1-184, |)
T5 sequence 1: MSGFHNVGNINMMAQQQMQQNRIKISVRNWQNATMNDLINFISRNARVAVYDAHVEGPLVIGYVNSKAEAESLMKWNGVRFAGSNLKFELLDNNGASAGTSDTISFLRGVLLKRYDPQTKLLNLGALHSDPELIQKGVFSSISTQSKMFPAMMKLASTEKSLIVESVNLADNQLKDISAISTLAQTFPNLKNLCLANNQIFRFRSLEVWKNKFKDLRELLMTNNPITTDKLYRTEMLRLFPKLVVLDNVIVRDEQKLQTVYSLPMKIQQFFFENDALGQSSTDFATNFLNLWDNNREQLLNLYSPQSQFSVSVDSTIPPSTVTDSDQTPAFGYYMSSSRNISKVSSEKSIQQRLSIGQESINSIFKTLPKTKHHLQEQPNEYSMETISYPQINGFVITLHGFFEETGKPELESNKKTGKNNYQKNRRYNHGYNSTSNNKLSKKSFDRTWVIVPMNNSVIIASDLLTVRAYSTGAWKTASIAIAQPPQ
T5 sequence 2: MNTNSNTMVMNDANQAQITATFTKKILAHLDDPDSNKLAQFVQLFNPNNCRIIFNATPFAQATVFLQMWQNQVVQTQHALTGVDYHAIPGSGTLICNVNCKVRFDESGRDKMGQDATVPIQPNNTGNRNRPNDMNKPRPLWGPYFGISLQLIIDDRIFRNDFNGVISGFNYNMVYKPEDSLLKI

T6: Mex67LRR-NTF2L;Mtr2 (Saccharomyces cerevisiae;Saccharomyces …, UniProt Q99257;P34232 101-487;1-184, |)
T6 sequence 1: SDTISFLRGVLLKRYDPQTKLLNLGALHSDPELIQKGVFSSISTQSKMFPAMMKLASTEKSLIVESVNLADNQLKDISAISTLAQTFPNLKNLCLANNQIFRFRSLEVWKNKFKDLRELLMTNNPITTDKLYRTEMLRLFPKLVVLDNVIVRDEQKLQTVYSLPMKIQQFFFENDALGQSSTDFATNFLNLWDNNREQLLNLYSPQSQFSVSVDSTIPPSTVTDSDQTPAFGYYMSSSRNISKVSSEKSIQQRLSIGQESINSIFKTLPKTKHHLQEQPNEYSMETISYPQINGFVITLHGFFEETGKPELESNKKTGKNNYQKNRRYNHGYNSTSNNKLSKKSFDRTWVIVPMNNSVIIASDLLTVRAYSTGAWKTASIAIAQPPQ
T6 sequence 2: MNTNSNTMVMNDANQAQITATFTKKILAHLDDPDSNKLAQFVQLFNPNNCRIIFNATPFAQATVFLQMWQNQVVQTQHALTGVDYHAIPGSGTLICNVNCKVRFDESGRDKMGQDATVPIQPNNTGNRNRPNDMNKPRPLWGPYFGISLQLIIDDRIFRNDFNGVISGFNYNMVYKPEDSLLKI

T7: Mex67ΔUBA L263Y+M265Y;Mtr2 (Saccharomyces cerevisiae;Saccharomyces …, UniProt Q99257;P34232 1-487;1-184, L263Y;M265Y|)
T7 sequence 1: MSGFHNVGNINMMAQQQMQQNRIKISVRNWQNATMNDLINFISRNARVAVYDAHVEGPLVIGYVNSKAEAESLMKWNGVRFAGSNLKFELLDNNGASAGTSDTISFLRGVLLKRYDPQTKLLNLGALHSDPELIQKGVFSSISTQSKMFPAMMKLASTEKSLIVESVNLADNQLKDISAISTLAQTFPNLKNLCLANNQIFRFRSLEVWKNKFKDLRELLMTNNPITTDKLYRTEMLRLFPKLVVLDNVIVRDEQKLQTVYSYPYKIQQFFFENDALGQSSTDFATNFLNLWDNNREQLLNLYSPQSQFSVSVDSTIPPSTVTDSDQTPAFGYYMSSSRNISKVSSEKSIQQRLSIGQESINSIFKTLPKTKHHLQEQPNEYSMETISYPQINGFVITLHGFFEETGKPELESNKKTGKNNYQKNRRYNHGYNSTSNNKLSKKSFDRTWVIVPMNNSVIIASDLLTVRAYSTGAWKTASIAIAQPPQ
T7 sequence 2: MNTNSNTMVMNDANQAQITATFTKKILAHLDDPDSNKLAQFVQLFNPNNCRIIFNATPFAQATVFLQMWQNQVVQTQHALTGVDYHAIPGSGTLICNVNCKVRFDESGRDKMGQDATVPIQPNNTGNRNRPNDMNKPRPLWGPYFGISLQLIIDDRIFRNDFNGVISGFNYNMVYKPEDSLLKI

T8: Mex67ΔUBA L263A+M265A;Mtr2 (Saccharomyces cerevisiae;Saccharomyces …, UniProt Q99257;P34232 1-487;1-184, L263A;M265A|)
T8 sequence 1: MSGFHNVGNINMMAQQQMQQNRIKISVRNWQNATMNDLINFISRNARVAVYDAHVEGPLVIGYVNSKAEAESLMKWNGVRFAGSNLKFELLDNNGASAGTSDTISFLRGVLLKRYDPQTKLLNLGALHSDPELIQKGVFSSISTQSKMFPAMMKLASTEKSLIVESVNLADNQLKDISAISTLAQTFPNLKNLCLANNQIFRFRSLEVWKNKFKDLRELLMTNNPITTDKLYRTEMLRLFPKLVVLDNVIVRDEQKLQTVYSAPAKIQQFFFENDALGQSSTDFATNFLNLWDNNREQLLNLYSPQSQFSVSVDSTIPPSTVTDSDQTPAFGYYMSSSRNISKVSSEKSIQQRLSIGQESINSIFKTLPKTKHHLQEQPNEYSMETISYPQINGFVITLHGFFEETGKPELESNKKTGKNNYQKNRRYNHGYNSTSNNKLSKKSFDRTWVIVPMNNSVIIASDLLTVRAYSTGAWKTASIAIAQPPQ
T8 sequence 2: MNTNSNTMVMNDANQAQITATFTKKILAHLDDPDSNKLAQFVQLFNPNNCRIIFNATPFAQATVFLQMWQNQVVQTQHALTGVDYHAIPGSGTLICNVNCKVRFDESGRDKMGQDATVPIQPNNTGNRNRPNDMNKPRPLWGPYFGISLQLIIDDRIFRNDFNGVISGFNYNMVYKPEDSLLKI


How the values were obtained:
Experiment in all cases: fluorescence anisotropy; 20 mM Tris pH 8.0, 50 mM NaCl, 10 nM DY-547 RNA; temperature not stated
[1] = molecular target: T1, Mex67 (full length):Mtr2;Mtr2; settings: protein: recombinant;recombinant, tags: His6 removed by TEV;, copies: 1;1
Mex67NTF2L;Mtr2 = molecular target: T2, Mex67NTF2L;Mtr2; settings: protein: recombinant;recombinant; tags: His6 removed by TEV;; copies: 1;1
[2] = molecular target: T3, Mex67ΔUBA L263D+M265D;Mtr2; settings: protein: recombinant;recombinant; tags: His6 removed by TEV;; copies: 1;1
Mex67RRM-LRR = molecular target: T4, Mex67RRM-LRR; settings: protein: recombinant; tags: His6 removed by TEV
Mex67ΔUBA;Mtr2 = molecular target: T5, Mex67ΔUBA;Mtr2; settings: protein: recombinant;recombinant; tags: His6 removed by TEV;; copies: 1;1
Mex67LRR-NTF2L;Mtr2 = molecular target: T6, Mex67LRR-NTF2L;Mtr2; settings: protein: recombinant;recombinant; tags: His6 removed by TEV;; copies: 1;1
[3] = molecular target: T7, Mex67ΔUBA L263Y+M265Y;Mtr2; settings: protein: recombinant;recombinant; tags: His6 removed by TEV;; copies: 1;1
[4] = molecular target: T8, Mex67ΔUBA L263A+M265A;Mtr2; settings: protein: recombinant;recombinant; tags: His6 removed by TEV;; copies: 1;1

Row | Binder | binding result ([1]; may form higher order structure) | Kd (Mex67NTF2L;Mtr2) [nM] | Kd [2] [nM] | Kd (Mex67RRM-LRR) [nM] | Kd (Mex67ΔUBA;Mtr2) [nM] | Kd [1] [nM] | Kd (Mex67LRR-NTF2L;Mtr2) [nM] | Kd [3] [nM] | Kd [4] [nM]
1 | GGGGGGGGGGGGGGG (ssRNA) [G15] | binds | – | – | – | – | – | – | – | –
2 | AAAAAAAAAAAAAAA (ssRNA) [A15] | – | 860 | 820 | 12000 | 310 | 260 | 340 | 420 | 640
